Changes are numbered by the printed parent chain. Names may count otherwise. “And” between values parts separate entries of the source, which are not always exact repeats. Equal entries are not always repeated.
Columns and labels:
[1] = molecular target: the molecule itself; assay: SEC; purified proteins after SUMO protease cleavage on Superdex75 (1.6 x 60), 20 mM Tris-HCl pH 7.5, 150 mM NaCl
[2] = molecular target: the molecule itself; assay: crystal structure; RICE1 at 20 mg/ml, hanging drop at 16°C, ~30% pentaerythritol propoxylate (5/4 PO/OH), 0.2 M KCl, 50 mM HEPES pH 7.5; space group I4(1)22, three molecules in the asymmetric unit
[3] = molecular target: the molecule itself; assay: SEC; purified RICE1 D114A on Hiload 16/600 Superdex 200 instead of the routinely used Superdex 75

B1: RICE1, purified recombinant (SUMO tag cleaved) (enzyme, A. thaliana, UniProt Q9SF21 1-200, looked up)
chain: MASFDGQGFMMVDNSWVQTKAIDVESTTDISPYLSKILEDSVWNGNRSIVFDVYWDVKSVSTKSEWRLCSVKFSTKNFCLFLRLPNPFCDNLKDLYRFFASKFVTFVGVQIQEDLALLKENHGIVIRSSLEIGKLAAKARGTPIVEFLGTRELAHKILWYDMSRLDSIQSKWDEASSNDRLEAAAIEGWLIFNVYDQLQQ
notes: RICE1 (At3g11770), A. thaliana; full-length cDNA in pET28a-SUMO (BamHI/SacI); also called wild type RICE1; source: E. coli BL21 (DE3), purified (Ni-NTA, SUMO protease cleavage, SEC); not shown: His6, N-terminal, cleaved; SUMO, N-terminal, cleaved
- stoichiometry N [1]: ~6
- stoichiometry N [2]: 6

B2: RICE1 D114A, purified recombinant (enzyme, A. thaliana, UniProt Q9SF21 1-200, looked up)
chain: B1 chain with D114A
notes: RICE1 (At3g11770), A. thaliana; point mutant made on pET28a-SUMO-RICE1; source: E. coli BL21 (DE3), purified (Ni-NTA, SUMO protease cleavage, SEC); not shown: His6, N-terminal, cleaved; SUMO, N-terminal, cleaved
- stoichiometry N [3]: 2 and 6

Reference: paper PMC5451212, “RISC-interacting clearing 3’- 5’ exoribonucleases (RICEs) degrade uridylated cleavage fragments to maintain functional RISC in Arabidopsis thaliana” (eLife, 2017)
